Measured values taken from paper PMC7081899.

Biological target: BG505_mut123_N241 SOSIP (HIV-1 (subtype A, BG505)) (UniProt Q2N0S6)
Experiment: negative-stain EM

B1: 13B Fab (Fab, V domains shown)
VH: LEESGGGLVQPEGSLTLTCKASGFDFSDYHVQWVRQSPGKGLEFIGGIAYTGNIYYASWAKGRFTISKTSSTTVTLQMTTLTAADTATYFCARAYGYASAPYAQYFNLWGPGTLVTVSS
VL: DIVMTQTPASVSEPVGGTVTINCQASQSRGNNYLSWYQQKPGQSPSLLIYRTSTLASGVPSRFKGSGSGTQFTLTISDLECADAATYYCLYGYYSSRNPDFAFGGGTEVVVK
Binder B1 has a percent of particles that were trimers with no Fab bound of 57% and a percent of particles with one Fab bound of 43%.
